The values below come from patent US20160083701A1 (UNITED STATES OF AMERICA AS REPRESENTED BY THE DEPARTMENT …, published 2016).

In assay [1] the target is His-tagged recombinant rat AKAP18δ (rAKAP18δ) (rat) (UniProt Q6JP77). Description: co-IP with anti-his beads, anti-Flag immunoblot, band ratios; reference is the same reaction without rPKAc. Background: A western blot detects proteins with antibodies after separation by electrophoresis.
For assay [2], the target named is T1, Purified recombinant SERCA2 (rSERCA2, Abnova) (UniProt P16615 1-1042, limits assumed).
T1 construct: Bought protein; The legend gives 1042 amino acids, while the discussion calls it SERCA2a
T1 sequence (P16615 whole entry): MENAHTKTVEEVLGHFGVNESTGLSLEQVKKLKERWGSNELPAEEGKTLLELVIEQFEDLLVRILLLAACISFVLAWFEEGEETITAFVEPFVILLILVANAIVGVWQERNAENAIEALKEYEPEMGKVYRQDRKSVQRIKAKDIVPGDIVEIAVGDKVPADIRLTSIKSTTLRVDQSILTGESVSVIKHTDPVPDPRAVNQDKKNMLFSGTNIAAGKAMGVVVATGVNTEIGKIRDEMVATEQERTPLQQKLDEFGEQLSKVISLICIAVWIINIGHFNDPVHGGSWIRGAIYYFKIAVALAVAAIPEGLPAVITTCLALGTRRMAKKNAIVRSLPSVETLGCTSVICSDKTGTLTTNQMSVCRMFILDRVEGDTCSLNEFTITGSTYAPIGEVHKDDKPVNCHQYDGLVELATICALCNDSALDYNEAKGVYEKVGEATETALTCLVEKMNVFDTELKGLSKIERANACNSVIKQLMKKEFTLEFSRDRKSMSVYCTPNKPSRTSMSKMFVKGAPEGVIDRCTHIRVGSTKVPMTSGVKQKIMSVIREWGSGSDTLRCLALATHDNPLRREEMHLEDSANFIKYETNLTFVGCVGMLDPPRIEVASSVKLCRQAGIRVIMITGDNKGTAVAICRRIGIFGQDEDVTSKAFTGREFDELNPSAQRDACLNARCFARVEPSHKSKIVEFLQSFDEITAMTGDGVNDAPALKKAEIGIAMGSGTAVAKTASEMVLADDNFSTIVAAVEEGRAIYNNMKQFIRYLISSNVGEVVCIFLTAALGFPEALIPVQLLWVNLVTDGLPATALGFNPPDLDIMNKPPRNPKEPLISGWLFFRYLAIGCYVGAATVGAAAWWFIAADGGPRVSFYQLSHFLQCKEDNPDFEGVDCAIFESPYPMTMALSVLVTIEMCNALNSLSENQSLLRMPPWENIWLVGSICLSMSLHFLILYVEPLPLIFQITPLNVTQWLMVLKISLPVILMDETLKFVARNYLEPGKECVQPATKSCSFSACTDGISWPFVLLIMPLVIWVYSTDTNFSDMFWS
Description: co-IP of the Flag-tagged construct with purified rSERCA2 (150 ng), anti-Flag IP, anti-SERCA2 immunoblot. An excerpt: FIG. 11 a-d. rPKAc phosphorylates rhPDE3A and increases its interactions rSERCA2. A. Schemes representing PDE3A1 [NHR1: trans-membrane domain (obligatory membrane insertion domain); NHR2: membrane association domain; CCR: conserved C-terminal catalytic region; P1-4: predicted PKA phosphorylation sites; rhPDE3A and truncated mutants (PDE3A2, PDE3A-A510, PDE3A-RD), and rSERCA2 (1042 amino acids, 3-77 cation transporter N-terminal; 93-341, E1-E2 ATPase; 345-724, haloacid dehydrogenase like hydrolase; 819-991, cation transporter ATPase C-terminus). B. Putative PKA phosphorylation sites of PDE3A designated with asterisks. […] Proteins were immunoprecipitated with anti-Flag antibodies and immunoblotted with anti-SERCA2 (upper panel), or anti-Flag (middle panel). Lower panel: input control (SERCA2). Shown are representative blots from three independent experiments. (RD: regulatory domain; AA: amino acid).

Sequence of His-tagged recombinant rat AKAP18δ (rAKAP18δ) (rat) (Q6JP77 whole entry, stated change not applied): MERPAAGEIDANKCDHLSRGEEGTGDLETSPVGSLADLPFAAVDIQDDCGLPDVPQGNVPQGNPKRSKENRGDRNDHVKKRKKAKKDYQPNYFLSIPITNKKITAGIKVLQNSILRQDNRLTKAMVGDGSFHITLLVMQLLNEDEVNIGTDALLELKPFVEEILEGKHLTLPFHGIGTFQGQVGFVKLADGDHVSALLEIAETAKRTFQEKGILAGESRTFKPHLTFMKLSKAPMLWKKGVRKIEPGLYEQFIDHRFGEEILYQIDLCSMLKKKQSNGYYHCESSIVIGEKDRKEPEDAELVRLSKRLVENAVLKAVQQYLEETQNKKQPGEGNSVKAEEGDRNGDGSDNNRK

Regarding “Flag-tagged recombinant human PDE3A1 (rhPDE3A1), phosphorylated in vitro by rPKAc (from UniProt Q14432 146-1141) (enzyme)”, in assay [1], the fold increase in binding (with rPKAc against control without rPKAc) was found to be 9 fold.

B1: rhPDE3A-A510 (recombinant form lacking the first 510 aa of the PDE3A open reading frame) (enzyme)
chain: SRPGALAKISPLSSPCSSPLQGTPASSLVSKISAVQFPESADTTAKQSLGSHRALTYTQSAPDLSPQILTPPVICSSCGRPYSQGNPADEPLERSGVATRTPSRTDDTAQVTSDYETNNNSDSSDIVQNEDETECLREPLRKASACSTYAPETMMFLDKPILAPEPLVMDNLDSIMEQLNTWNFPIFDLVENIGRKCGRILSQVSYRLFEDMGLFEAFKIPIREFMNYFHALEIGYRDIPYHNRIHATDVLHAVWYLTTQPIPGLSTVINDHGSTSDSDSDSGFTHGHMGYVFSKTYNVTDDKYGCLSGNIPALELMALYVAAAMHDYDHPGRTNAFLVATSAPQAVLYNDRSVLENHHAAAAWNLFMSRPEYNFLINLDHVEFKHFRFLVIEAILATDLKKHFDFVAKFNGKVNDDVGIDWTNENDRLLVCQMCIKLADINGPAKCKELHLQWTDGIVNEFYEQGDEEASLGLPISPFMDRSAPQLANLQESFISHIVGPLCNSYDSAGLMPGKWVEDSDESGDTDDPEEEEEEAPAPNEEETCENNESPKKKTFKRRKIYCQITQHLLQNHKMWKKVIEEEQRLAGIENQSLDQTPQSHSSEQIQAIKEEEEEKGKPRGEEIPTQKPDQ
notes: The range 511-1141 follows from the statement that the first 510 aa of the open reading frame were deleted; Incubated with or without rPKAc
In the case of B1, the binding result in assay [2] is recorded as “no binding”.
